The text below walks through data of patent US20240400693A1.

A value given as a limit tells only on which side of the number the result lay.

Assay in all cases: cell-based or functional assay
The target of experiment [1] is HLA-DQ2.5 on IHW09023 cells loaded with 33mer gliadin peptide (human; wheat).
In experiment [2] the target is HLA-DQ2.5 on IHW09023 cells loaded with BC hordein peptide (human; barley).
The target of experiment [3] is HLA-DQ2.5 on IHW09023 cells loaded with gamma 1 gliadin peptide (human; wheat).
Experiment [4] deals with HLA-DQ2.5 on IHW09023 cells loaded with gamma 2 gliadin peptide (human; wheat).
Experiment [5] has as its target HLA-DQ2.5 on IHW09023 cells loaded with gamma 3 gliadin peptide (human; wheat).
Experiment [6] concerns the target HLA-DQ2.5 on IHW09023 cells loaded with gamma 4a gliadin peptide (human; wheat).
The target of experiment [7] is HLA-DQ2.5 on IHW09023 cells loaded with gamma 4d gliadin peptide (human; wheat).
Experiment [8] concerns the target HLA-DQ2.5 on IHW09023 cells loaded with omega1/2 gliadin peptide (human; wheat).

B1: DQN034425 (antibody, V domains shown)
VH: QVQLVESGGGVVQPGRSLRLSCAASGFTFSSSYWMCWVRQAPGQGLEWMGCVYGGSDTTYYASWTKGRFTISRDNSKNTLYLQMNSLRAEDTAVYYCARDPLNYYYYGELNLWGQGTLVTVSS
VL: DIQMTQSPSSLSASVGDRVTITCQATENIYSGLAWYQQKPGKAPKLLIYYVSTLASGIPARFSGSGSGTDFTLTISSLEPEDFAVYYCQTYHDISNVTFGQGTKVEIK
In experiment [1], B1 displayed an IC50 (ng/mL), α1a gliadin TCR, 250 nM 33mer gliadin of 10.6 ng/mL; an IC50 (ng/mL), α1b gliadin TCR, 250 nM 33mer gliadin of 46.4 ng/mL; an IC50 (ng/mL), α2 gliadin TCR, 250 nM 33mer gliadin of 1.75 ng/mL. Also, the IC50 (ng/mL), BC hordein TCR, 250 nM BC hordein in experiment [2] is over 20000 ng/mL. Besides, the IC50 (ng/mL), γ1 gliadin TCR, 250 nM γ1 gliadin in experiment [3] is over 20000 ng/mL. Moreover, in experiment [4], the IC50 (ng/mL), γ2 gliadin TCR, 250 nM γ2 gliadin was over 20000 ng/mL. The molecule also came in with an IC50 (ng/mL), γ3 gliadin TCR, 100 µM γ3 gliadin in experiment [5] of 3100 ng/mL. The IC50 (ng/mL), γ4a gliadin TCR, 25 µM γ4a gliadin in experiment [6] is over 20000 ng/mL. The IC50 (ng/mL), γ4d gliadin TCR, 100 µM γ4d gliadin in experiment [7] is over 20000 ng/mL. In experiment [8], this molecule registered an IC50 (ng/mL), ω1 gliadin TCR, 25 µM ω1/2 gliadin of 3.12 ng/mL and an IC50 (ng/mL), ω2 gliadin TCR, 250 nM ω1/2 gliadin of over 500 ng/mL.
